Experimental data published in article PMC2873508.

Experiments:
[1] = molecular target: feline CD134 on MCC cells (feline)
[2] = molecular target: CD134 on MYA-1 cells (not stated (endogenous in MYA-1 cells))
[3] = molecular target: CD134 on MYA-1 cells (not stated (endogenous in MYA-1 cells)); remark: listed apart in the source
[4] = molecular target: Chimaeric GL8 (ABSN) Env with the V4-V5 region of variant B14 (feline immunodeficiency virus (FIV), strain GL8 | feline immunodeficiency virus (FIV), strain GL8, in vivo variant)
[5] = molecular target: FIV GL8 Env (molecular clone 414) (feline immunodeficiency virus (FIV), strain GL8)

| Substance | ratio of luciferase counts (CPM) of HIV(FIV) pseudotype infection on MCC cells with feline CD134 divided by counts on MCC cells with the feCRD1 chimera (feline CRD1 x human CD134); dependency on CRD2 [1] | percent infection of MYA-1 cells by HIV(FIV) pseudotype with anti-CD134 antibody, relative to no antagonist (Fig. 7A) [2] [% infection] | inhibition of HIV(FIV) pseudotype infection of MYA-1 cells by anti-CD134 antibody 7D6 (series 0.4 to 50 μg/ml; reduced by 90% at 0.4 μg/ml) (% reduction of infection) [3] | percent infection of MYA-1 cells by HIV(FIV) pseudotype (Env with cell CD134) with sFc-CD134, relative to no antagonist (Fig. 7B) [4] [% infection] | percent infection of MYA-1 cells by HIV(FIV) pseudotype (Env with cell CD134) with sFc-CD134, relative to no antagonist (Fig. 7B) [5] [% infection] |
| --- | --- | --- | --- | --- | --- |
| FIV B2542 Env (natural protein) | 5 |  |  |  |  |
| FIV Env of A613 variant B14 (natural protein) | 10 | 19.5 | > 99 |  |  |
| FIV Env of A613 variant B23 (natural protein) | 223 |  |  |  |  |
| soluble Fc-CD134 (Fc fusion) |  |  |  | 65.1 | 18.4 |
